As a reminder, the Kd is the concentration at which binding is half-saturated.

The assay has as its target pSer110 peptide (IRAKM residues 103-124 with Ser110 phosphorylated). Put plainly: NMR titration, 1H-15N HSQC chemical shift changes.

pSer110 peptide (IRAKM residues 103-124 with Ser110 phosphorylated), sequence (peptide, as listed by the source limits assumed): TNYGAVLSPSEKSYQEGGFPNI

On to “15N-labeled Pin1 WW domain (Pin1 residues 1-50) (from UniProt Q13526 1-50)”, for which the Kd was 60.7 µM.

The values above are taken from patent US20170112792A1, “ENHANCED ATRA-RELATED COMPOUNDS DERIVED FROM STRUCTURE-ACTIVITY RELATIONSHIPS AND MODELING FOR INHIBITING PIN1” (Beth Israel Deaconess Medical Center, Inc., priority 2014, published 2017).
